From publication PMC8304084, “A Concerted Action of UBA5 C-Terminal Unstructured Regions Is Important for Transfer of Activated UFM1 to UFC1” (International Journal of Molecular Sciences, 2021)
“Also recorded” adds a separate entry of the source. Where no end group is shown, it is not given here.

What was measured:
GABARAPL2 = target: T1, GABARAPL2 (Homo sapiens, UniProt P60520); assay: ITC, UBA5 peptides vs GABARAPL2; format: binding; details: for affinity increase to GABARAPL2 vs wild type peptide / ΔG / ΔS / −T*ΔS / KA*10^−6: 25 °C; for ΔG / ΔS / −T*ΔS: vs GABARAPL2; for KA*10^−6: vs GABARAPL2, value is KA × 10^−6, ± = fitting error; for affinity change, GABARAPL2: A371 mutants of R1-R2-R3^325–404
T1 construct: modified ubiquitin tag (Ub19) with TEV site (N, cleaved yes); made in house; host or cells: E. coli T7 Express
Excerpt: (§1) To understand how the UBA5 C-terminus participates in the ufmylation cascade, we performed isothermal titration calorimetry (ITC) experiments, in which we titrated UBA5 C-terminal peptides (see Table 1) to the UBA5 AD, UFC1, UFM1 and representative LC3/GABARAP proteins (Figure 2A, Supplementary Figure S2A–D and Table 2).
(§2) All proteins and peptides were expressed in E.Coli T7 Express (New England Biolabs GmbH, Frankfurt, Germany) cells in LB or M9 (to obtain ^15N- and ^13C,^15N-labeled polypeptides) media according to the protocol described in [33, 36]. For protein purification, bacterial cell pellets were resuspended in lysis buffer (50 mM Tris-HCl pH = 7.5, 100 mM NaCl, 5% glycerol, 5 mM PIC (protease inhibitor cocktail)) and lysed via sonication (TT13 Sonotrode, 40% amplitude, for 6 × 1 min with a 0.5/0.5-s pulse). Lysates were centrifuged for 45 min at 17,000× g at 4 °C. Supernatants were loaded onto a His Trap Fast Flow 5 mL column (GE Healthcare, München, Germany) equilibrated in loading buffer (50 mM Tris-HCl pH = 8.0, 250 mM NaCl, 1% glycerol, 20 mM imidazole). The column was washed with loading buffer for 5–10 CV and protein was eluted with elution buffer (50 mM Tris-HCl pH = 8, 250 mM NaCl, 1% glycerol, 400 mM imidazole). Simultaneous TEV cleavage (1 mg TEV protease was added to 100 mg peptides/proteins) and buffer exchange to loading buffer via dialysis was performed over night at 4 °C. After reverse IMAC, proteins were concentrated with conical concentrators (Millipore Merck, Darmstadt, Germany) and loaded on a Superdex 10/60 75 or 200 column (GE Healthcare, München, Germany) for further purification and equilibration with ITC/NMR buffer (25 mM HEPES pH = 7.5, 100 mM NaCl). For structural NMR spectroscopy, buffer containing 50 mM Tris-HCl pH = 7.5, 100 mM NaCl was used. Prior to NMR experiments, TCEP and protease inhibitors cocktail were added to the samples to final concentrations 1 and 5 mM, respectively. Purified peptides and protein were concentrated and stored at −80 °C. The protein and peptide concentrations were calculated from the UV absorption at 280 nm by Nanodrop spectrophotometer (Thermo Scientific, Langenselbold, Germany).
(§3) All ITC experiments were performed at 25 °C using a VP-ITC microcalorimeter (Malvern Panalytical Ltd., Malvern, UK). Peptides in concentration of ~400 µM were titrated into 20–25 µM solutions of corresponding binding partner at a stirring speed of 307 rpm. The raw data were corrected on the dilution heat of peptides obtained in independent experiment (titration of the peptide in syringe into the ITC/NMR buffer in the measuring cell). Pre-titration delay was set to 180 s, interval between titration steps was experimentally adjusted to avoid kinetic contribution to the observed heat effects and set to 200 s. A single ITC profile was collected for each type of interaction. The ITC data were analyzed based on a “one-site” binding model with MicroCal ITC software implemented in Origin 7.0.

UFM1 = target: T2, UFM1 (Homo sapiens, UniProt P61960); assay: ITC, UBA5 peptides vs UFM1; format: binding; details: 25 °C; for ΔG / −T*ΔS: vs UFM1; for ΔS: vs UFM1, one-site model, single profile; for KA*10^−6: vs UFM1, value is KA × 10^−6, ± = fitting error
T2 construct: Full length UFM1, residues 2–83; modified ubiquitin tag (Ub19) with TEV site (N, cleaved yes); made in house; host or cells: E. coli T7 Express
Excerpt: as §1, §2, §3

UFC1 [1] = target: T3, UFC1 (Homo sapiens, UniProt Q9Y3C8); assay: In vitro thioester formation (ufmylation) assay, UFC1~UFM1 conjugate; format: biochemical; details: for effect on UFC1~UFM1 conjugation (in words): 1 mM ATP, 22 °C, peptides added to UBA5 AD^1–330 where applicable; for UFC1~UFM1 conjugate fraction (in words): ATP reduced to 25 µM, compared to wild type peptide
T3 construct: Full length UFC1, residues 1–167; modified ubiquitin tag (Ub19) with TEV site (N, cleaved yes); made in house; host or cells: E. coli T7 Express
T3 sequence (Q9Y3C8 1-167): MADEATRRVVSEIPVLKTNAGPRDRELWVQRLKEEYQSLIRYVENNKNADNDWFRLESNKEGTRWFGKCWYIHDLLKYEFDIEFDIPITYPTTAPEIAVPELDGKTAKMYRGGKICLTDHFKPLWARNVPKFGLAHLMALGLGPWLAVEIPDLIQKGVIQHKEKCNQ
Procedure: First, we analyzed the effect of the UBA5 C-terminus on UFM1 transfer to UFC1 with an in vitro thioester formation assay (Figure 1B–E).
Ufmylation reaction assays were adopted from work of Xie. Briefly, 70 µM UFM1, 20 µM UFC1 and 20 µM of different UBA5 constructs were mixed in reaction buffer (50 mM HEPES pH = 7.5, 100 mM NaCl, 5 mM MgCl2). After starting the reaction with addition of 1 mM ATP, the reaction mix was incubated at 22 °C for the desired time. To quench the reaction and prepare electrophoretic samples, 1 µL of the reaction mix was added to 99 µL 1x non-reducing SDS loading buffer and frozen in liquid nitrogen. Sample content was visualized by sodium dodecyl sulfate polyacrylamide gel electrophoresis (SDS-PAGE). The transfer to polyvinylidene difluoride (PVDF) membrane was performed via a Trans-Blot® Turbo™ Transfer System (Bio-Rad, München, Germany). After transfer the membrane was blocked with TBST (Tris-buffered saline with Tween20 buffer, 20 mM Tris, 150 mM NaCl and 0.1% TWEEN 20) containing 5% w/v nonfat dry milk for 1 h, followed by α-UFC1 antibody incubation over night at 4 °C (ab189251 abcam, 1:10,000 in TBST containing 5% w/v nonfat dry milk). After washing with TBST the membrane was incubated with secondary antibody (anti-rabbit-HRP) for 1 h at RT and again washed with TBST. Detection was performed by addition of ECL solution. For quantification of UFC1 ufmylation coloc2 software implemented in ImageJ was used.

UFC1 [2] = target: T3, UFC1; assay: ITC, UBA5 constructs vs UFC1; format: binding; details: for N: ITC stoichiometry; for N / ΔG / −T*ΔS / ΔS / KA*10^−6: peptide vs UFC1; for N / KA*10^−6 / ΔH: ± = fitting error; for ΔG / −T*ΔS / ΔS / KA*10^−6 / Kd / ΔH: ITC, 25 °C; for ΔS / Kd / ΔH: one-site model; for ΔS: single profile; for KA*10^−6: value is KA × 10^−6; for Kd / ΔH: VP-ITC, peptide ~400 µM titrated into 20–25 µM UFC1, 25 mM HEPES pH 7.5, 100 mM NaCl, single ITC profile
Excerpt: as §1
To investigate if conjugation of UFM1 to the UBA5 catalytic cysteine (C250) affects the UFC1:UBA5 interactions, we prepared full length UBA5 C250K mutant and stably conjugated UFM1 to it as reported before for a number of ubiquitin-specific E2 enzymes. We compared the UFC1 spectra after addition of a twofold molar excess of FL^1–404 and FL^1–404 C250K~UFM1 constructs (Supplementary Figure S5C).
as §2, §3

LC3B = target: T4, LC3B (Homo sapiens, UniProt Q9GZQ8); assay: ITC, UBA5 peptides vs LC3B; format: binding; details: for affinity increase to LC3B vs wild type peptide / ΔG / ΔS / −T*ΔS / KA*10^−6: 25 °C; for ΔG / ΔS / −T*ΔS / KA*10^−6: vs LC3B; for KA*10^−6: value is KA × 10^−6, ± = fitting error; for affinity change, LC3B: A371 mutants of R1-R2-R3^325–404
T4 construct: LC3B, residues 5–120; ubiquitin tag Ub3 (vector pETm60_Ub3) (cleaved yes); made in house; host or cells: E. coli T7 Express
Excerpt: as §1, §2, §3

T1 sequence (P60520 3-116): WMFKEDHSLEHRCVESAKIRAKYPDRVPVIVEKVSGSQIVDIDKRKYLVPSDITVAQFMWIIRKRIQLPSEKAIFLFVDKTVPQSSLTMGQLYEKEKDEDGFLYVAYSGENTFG
T2 sequence (P61960 2-83): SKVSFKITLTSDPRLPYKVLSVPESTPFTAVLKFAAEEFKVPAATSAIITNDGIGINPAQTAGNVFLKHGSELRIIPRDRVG

Substance	affinity increase to GABARAPL2 vs wild type peptide (GABARAPL2)	ΔG (GABARAPL2) [kcal/mol]	ΔS (GABARAPL2) [cal mol^−1 K^−1]	−T*ΔS (GABARAPL2) [kcal/mol]	KA*10^−6 (GABARAPL2) [M^−1]	affinity change, GABARAPL2 (GABARAPL2)	ΔG (UFM1) [kcal/mol]	−T*ΔS (UFM1) [kcal/mol]	ΔS (UFM1) [cal mol^−1 K^−1]	KA*10^−6 (UFM1) [M^−1]	effect on UFC1~UFM1 conjugation (in words) (UFC1 [1])	UFC1~UFM1 conjugate fraction (in words) (UFC1 [1])	N (UFC1 [2])	ΔG (UFC1 [2]) [kcal/mol]	−T*ΔS (UFC1 [2]) [kcal/mol]	ΔS (UFC1 [2]) [cal mol^−1 K^−1]	KA*10^−6 (UFC1 [2]) [M^−1]	Kd (UFC1 [2]) [µM]	ΔH (UFC1 [2]) [kcal/mol]	affinity increase to LC3B vs wild type peptide (LC3B)	further results
R1-R2-R3^325–404 A371T: UBA5 C-terminal part with A371T mutant (res. 325–404)	~ 3 fold	-9.89	7.76	-2.31	17.90 ± 3.75	some increase in affinity	-7.02	3.96	−13.3	0.14 ± 0.01	nearly the same trans-thioesterification efficiency compared to wild type	reduction of the UFC1~UFM1 conjugate fraction	1.03 ± 0.008	-7.82	0.06	−0.19	0.54 ± 0.03	1.8	-7.88 ± 0.08	~ 3 fold	effect on UFC1~UFM1 conjugation (in words) (UFC1 [1]; listed as A371T): did not affect significantly the formation of the UFC1~UFM1 conjugate; ΔG (LC3B): -8.02 kcal/mol; ΔS (LC3B): 14.3 cal mol^−1 K^−1; −T*ΔS (LC3B): -4.26 kcal/mol; KA*10^−6 (LC3B): 0.76 ± 0.04 M^−1; affinity change, LC3B (LC3B): some increase in affinity
GABARAPL2: GABARAPL2, residues 3–116	–	–	–	–	–	–	–	–	–	–	–	–	–	–	–	–	–	–	–	–	effect of GABARAPL2 on UFC1~UFM1 conjugation (UFC1 [1]; high concentration of GABARAPL2 added to ufmylation assay): could efficiently prohibit the UFC1~UFM1 conjugation
GAMGPVPDLPEGITVAYTIPKKQEDSVTELTVEDSGESLEDLMAKMKNM [R2-R3^359–404]	–	–	–	–	–	–	–	–	–	–	–	–	–	–	–	–	–	2.7	–	–	–
R1-R2-R3^325–404 A371E: UBA5 C-terminal part with A371E mutant (res. 325–404)	~ 3 fold	-9.95	7.23	-2.16	19.60 ± 2.57	some increase in affinity	-6.86	4.56	−15.3	0.11 ± 0.01	nearly the same trans-thioesterification efficiency compared to wild type	reduction of the UFC1~UFM1 conjugate fraction	1.03 ± 0.005	-7.88	-0.11	0.36	0.60 ± 0.02	1.6	-7.78 ± 0.05	~ 7 fold	effect on UFC1~UFM1 conjugation (in words) (UFC1 [1]; listed as A371E): did not affect significantly the formation of the UFC1~UFM1 conjugate; ΔG (LC3B): -8.49 kcal/mol; ΔS (LC3B): 15.3 cal mol^−1 K^−1; −T*ΔS (LC3B): -4.56 kcal/mol; KA*10^−6 (LC3B): 1.66 ± 0.12 M^−1; affinity change, LC3B (LC3B): some increase in affinity
H-GAMGPVPDLPEGITVAYTIPK-OH [R2^359–376]	–	–	–	–	–	–	–	–	–	–	virtually no effect	–	–	–	–	–	–	–	–	–	interaction / affinity to UFC1 (in words) (UFC1 [2]; ITC and NMR titration, listed as R2): no direct interactions; also recorded: does not interact with UFC1
GAMEDSGESLEDLMAKMKNM [R3^388–404]	–	–	–	–	–	–	–	–	–	–	–	–	–	–	–	–	–	10	–	–	–
